This note sets out measurements from patent publication US20170101472A1 (Regeneron, published 2017).

Bounds are passed on as bounds.

For assay [1], the target named is T1, human LAG3 expressed on HEK293 cells (human, UniProt P18627 23-525).
T1 construct: also called hLAG3; HEK293/hLAG3
T1 sequence: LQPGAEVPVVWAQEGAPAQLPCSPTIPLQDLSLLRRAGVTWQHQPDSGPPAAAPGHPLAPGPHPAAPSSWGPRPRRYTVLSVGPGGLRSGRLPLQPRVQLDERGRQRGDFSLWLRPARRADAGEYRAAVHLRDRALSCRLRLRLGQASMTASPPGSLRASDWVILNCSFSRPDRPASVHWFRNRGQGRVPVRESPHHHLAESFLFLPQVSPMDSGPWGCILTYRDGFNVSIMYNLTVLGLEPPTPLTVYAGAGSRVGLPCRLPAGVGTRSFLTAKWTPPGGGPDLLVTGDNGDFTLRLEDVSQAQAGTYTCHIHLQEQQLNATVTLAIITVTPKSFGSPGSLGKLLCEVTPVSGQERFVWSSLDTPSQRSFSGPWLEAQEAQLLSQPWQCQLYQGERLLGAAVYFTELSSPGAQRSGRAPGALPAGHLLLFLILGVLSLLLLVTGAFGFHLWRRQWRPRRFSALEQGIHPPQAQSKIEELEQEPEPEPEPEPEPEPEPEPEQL
The assay is described as follows: electrochemiluminescence cell binding, HEK293-hLAG3. Here is the method: To investigate the ability of a panel of anti-LAG3 monoclonal antibodies to bind cell-surface expressed LAG3, an in vitro binding assay utilizing human and monkey LAG3 expressing cell lines in an electrochemiluminescence based detection platform [Meso Scale Diagnostics, Rockville, Md.—(MSD)] was developed.
Experiments were carried out according to following procedure. Cells from the three cell lines described above were rinsed once in 1×PBS buffer without Ca²⁺/Mg²⁺ followed by 10-minute incubation at 37° C. with Enzyme Free Cell Dissociation Solution. […] Approximately 10,000 cells per well in the cell-washing buffer were seeded into the 96-well carbon electrode plates (MULTI-ARRAY high bind plate, MSD) and incubated for 1 hour at 37° C. to allow the cells to adhere. Nonspecific binding sites were blocked by 2% BSA (w/v) in PBS for 1 hour at room temperature. […] The plates were then washed to remove the unbound antibodies using an AquaMax2000 plate washer (MDS Analytical Technologies). The plate-bound antibodies were detected with a SULFO-TAG™-conjugated anti-human IgG antibody (MSD) for 1 hour at room temperature. After washes, the plates were developed with the Read Buffer (MSD) according to manufacturer's recommended procedure and the luminescent signals were recorded with a SECTOR Imager 6000 (MSD) instrument. The direct binding signals (in relative light units—RLU) were analyzed as a function of the antibody concentration and the data were fitted with a sigmoidal (four-parameter logistic) dose-response model using Graph Pad Prism™ software. The potency of each antibody was determined by calculating EC₅₀.

The target in assay [2] is T2, human LAG3 chimera (extracellular domain of human LAG3 and trans-membrane/cytoplasmic domain of human CD300a) … (human, UniProt P18627 23-450; Q9UGN4 181-299, limits assumed).
T2 sequence (looked up): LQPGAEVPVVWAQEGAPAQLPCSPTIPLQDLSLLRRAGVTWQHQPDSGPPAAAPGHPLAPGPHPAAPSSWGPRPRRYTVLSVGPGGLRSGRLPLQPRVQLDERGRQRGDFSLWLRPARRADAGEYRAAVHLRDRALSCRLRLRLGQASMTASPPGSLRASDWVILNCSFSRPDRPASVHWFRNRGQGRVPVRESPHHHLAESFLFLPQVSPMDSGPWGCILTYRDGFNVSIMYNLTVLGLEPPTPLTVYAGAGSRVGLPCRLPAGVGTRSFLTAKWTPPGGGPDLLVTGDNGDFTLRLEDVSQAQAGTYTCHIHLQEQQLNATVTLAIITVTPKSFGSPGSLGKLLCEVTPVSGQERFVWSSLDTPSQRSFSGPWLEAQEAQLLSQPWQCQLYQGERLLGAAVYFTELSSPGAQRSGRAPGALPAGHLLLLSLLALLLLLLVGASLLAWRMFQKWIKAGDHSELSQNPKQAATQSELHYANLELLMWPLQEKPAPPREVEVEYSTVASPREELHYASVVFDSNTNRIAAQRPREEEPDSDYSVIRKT
In words: cell-based or functional assay.

Assay [3] addresses T1, human LAG3 expressed on HEK293 cells. The assay is described as follows: cell adherence assay, blocks RAJI (human MHCII) cells on HEK293-hLAG3. Here is the method:
Cells were plated into sterile Nunclon™ Delta 96-Well MicroWell™ Black Optical Bottom Plates (Thermo Scientific). The wells from the perimeter of the plate were not included in the assay design to avoid edge effects.
On the day of treatment, all antibodies were serially (1:3) diluted in RPMI media (without FBS or supplements added). The 9-point dilution ranged between 45 pM to 300 nM, with the last dilution point containing no mAb. […] While the plated HEK293-LAG3 cells were incubating with the test or control antibodies, non-adherent B-cells (RAJI or A20) were labeled with Calcein AM using the following procedure. RAJI and A20 suspension cells were harvested and centrifuged at 1,200 rpm for 5 minutes. Cell pellets were resuspended in 1×PBS and counted. Cells were washed with RPMI, and resuspended in RPMI at a concentration of 10⁶ cells per 1 ml. Cells were labeled by adding 5 μL of Calcein AM per 1 ml of cell suspension and incubated for 30 min at 37° C., at 5% CO₂. […] Subsequently, 10 μL of BD Pharmingen Fc Block (0.5 mg/mL) was added per 1 ml of the Calcein AM labeled cells, which were incubated at RT for 10 minutes. The Calcein AM-stained, Fc-blocked RAJI or A20 cells were resuspended in RPMI to a final concentration of 3×10⁶ cells per 1 ml and subsequently used in the adherence assay.
The labeled suspension cells were incubated with the HEK293 monolayer for 1 hour at 37° C., at 5% CO₂.

B1: H4H17819P (antibody, human IgG4, V domains shown)
VH: EVQLVESGGGLVQPGGSLRLSCVASGFTFSLYAMTWVRQVPGKGLEWVSTISGSGGGTYYTDSVKGRFTISRDNSKNTLYLQMNSLRADDTAVFYCTKESTTGTYSYFYGMDVWGQGTTVTVSS
VL: DIQMTQSPSSLSASVGDRVTITCRASQTISSYLNWYQQKPGKAPKLLIYAASSLQSGVPSRFSGSGSGTDFTLTLSGLQPEDFATYYCQQSYSTPLTFGGGTKVEIK
notes: H4H = human IgG4 Fc with S108P hinge mutation
In assay [1], B1 yielded an EC50 of 0.69 nM. Further, in assay [2], the “EC50, AP1-Luc signaling, bispecific mode” value was greater than 100 nM and the “EC50, AP1-Luc signaling, peptide mode” value was found to be 2.12 nM. This molecule displayed an IC50 in assay [3] of 17 nM.

B2: H4H15479P (antibody, human IgG4, V domains shown)
VH: QVQLQQWGAGLLNPSETLSLTCAVYGGAFSDYYWNWIRQPPGKGLEWIGEINHRGSTNYNPSLKSRVTISVDTSKNQFSLRMSSVTAADAAVYYCARGEDYDIWNGYYQEKWGQGTLVTVSS
VL: EIVLTQSPATLSLSPGERATLSCRASQSISTYLAWYQQKPGQAPRLLIYDASKRATGIPARFSGSGSGTDFTLTISSLEPEDFVVYYCHQRSNWPLTFGGGTKVEIK
In assay [1], B2 gave an EC50 of 52 nM. In assay [2], the “EC50, AP1-Luc signaling, bispecific mode” value came to 0.145 nM and the “EC50, AP1-Luc signaling, peptide mode” value was 0.284 nM. Also, the IC50 in assay [3] amounted to 31 nM.

B3: H4H14813N (antibody, human IgG4, V domains shown)
VH: QVQLQQWGAGLLKPSETLSLTCAVYGGSFSGYYWNWIRQPPGKGLEWVGEISHRGSTNYNPSLKSRVTISLDTSKNQFSLKLTSVTAADTAVYYCSRDEELEFRFFDYWGQGTLVTVSS
VL: EIVLTQSPATLSLSPGERATLSCRASQSVSSYLAWYQQKPGQAPRLLVYGASNRATGIPARFSGSGSGTDFTLTISSLEPEDFAFYYCQQRSNWPLTFGGGTKVEIK
notes: as for B1
Molecule B3 came in with an EC50 in assay [1] of 19.9 nM. Further, in assay [2], the “EC50, AP1-Luc signaling, bispecific mode” value came out at 1.07 nM and the “EC50, AP1-Luc signaling, peptide mode” value was found to be 1.01 nM. This molecule came in with an IC50 in assay [3] of 17 nM.

B4: H4H15483P (antibody, human IgG4, V domains shown)
VH: QVQLQQWGAGLLPPSETLSLICAVYGGSFSGYYWSWIRQPPGKGLEWIGEINHRGSTNYNPSLKSRATISVDTSKNQFSLKLSSVTAADTAVYYCSRGEDYYDSSGYSYYFDYWGQGTLVTVSS
VL: EIVLTQSPATLSLSPGERATLSCRASQSVSSYLAWYQQKPGQAPRLLIYDASNRATGIPARFSGSGSGTDFTLTISSLEPEDFAVYYCQQRSNWPLTFGGGTKVEIK
notes: as for B1
On to B4, for which, in assay [1], it took 17.2 nM to reach a half-maximal effect (EC50). Also, in assay [2], the “EC50, AP1-Luc signaling, bispecific mode” value was 3.69 nM and the “EC50, AP1-Luc signaling, peptide mode” value worked out at 2.54 nM. The molecule further had a 50% inhibitory concentration (IC50) in assay [3] of 19 nM.

B5: H4sH15498P2 (antibody, V domains shown)
VH: EVQLVESGGGLVQPGGSLRLSCAASGFTFTSYAMTWVRQAPGKGLEWVSDISGSGGRTYYADSVKGRFTISRDNSKNMLYLQMNILRAEDTAVYHCAKGTGQQVDLYNYYYALDVWGQGTTVTVSS
VL: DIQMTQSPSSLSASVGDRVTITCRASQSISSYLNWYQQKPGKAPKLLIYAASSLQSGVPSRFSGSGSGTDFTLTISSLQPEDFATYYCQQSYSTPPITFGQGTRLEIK
notes: H4sH = human IgG4 Fc with 2 or more amino acid changes as disclosed in US20140243504
For the molecule B5, in assay [1], the EC50 worked out at 2.87 nM. For the same molecule, in assay [2], the “EC50, AP1-Luc signaling, bispecific mode” value was greater than 100 nM and the “EC50, AP1-Luc signaling, peptide mode” value was found to be 4.61 nM. Moreover, the IC50 in assay [3] was determined as 16 nM.

B6: H4H15498P2 (antibody, human IgG4, V domains shown)
VH: EVQLVESGGGLVQPGGSLRLSCAASGFTFTSYAMTWVRQAPGKGLEWVSDISGSGGRTYYADSVKGRFTISRDNSKNMLYLQMNILRAEDTAVYHCAKGTGQQVDLYNYYYALDVWGQGTTVTVSS
VL: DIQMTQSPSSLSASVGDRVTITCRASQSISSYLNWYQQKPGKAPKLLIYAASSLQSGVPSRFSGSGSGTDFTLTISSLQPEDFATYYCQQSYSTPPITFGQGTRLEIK
notes: as for B1
B6 returned an EC50 in assay [1] of 2.95 nM. For the same molecule, in assay [2], the “EC50, AP1-Luc signaling, bispecific mode” value worked out at 6.62 nM and the “EC50, AP1-Luc signaling, peptide mode” value turned out to be 5.89 nM. In assay [3], the half-maximal inhibitory concentration (IC50) came out at 15 nM.

B7: H4sH14813N (antibody, human IgG4 S228P, kappa, V domains shown)
VH: QVQLQQWGAGLLKPSETLSLTCAVYGGSFSGYYWNWIRQPPGKGLEWVGEISHRGSTNYNPSLKSRVTISLDTSKNQFSLKLTSVTAADTAVYYCSRDEELEFRFFDYWGQGTLVTVSS
VL: EIVLTQSPATLSLSPGERATLSCRASQSVSSYLAWYQQKPGQAPRLLVYGASNRATGIPARFSGSGSGTDFTLTISSLEPEDFAFYYCQQRSNWPLTFGGGTKVEIKR
notes: H4sH = modified human IgG4 Fc
B7 had an EC50 in assay [1] of 20.3 nM. Also, in assay [2], the “EC50, AP1-Luc signaling, bispecific mode” value is 0.688 nM and the “EC50, AP1-Luc signaling, peptide mode” value was 0.816 nM. In addition, the IC50 in assay [3] turned out to be 6 nM.

B8: H4sH15482P (antibody, human IgG4 S228P, kappa)
heavy: QVQLVESGGGVVQPGRSLRLSCVASGFTFSSYGMHWVRQAPGKGLEWVAIIWYDGSNKYYADSVKGRFTISRDNSKNTQYLQMNSLRAEDTAVYYCASVATSGDFDYYGMDVWGQGTTVTVSSASTKGPSVFPLAPCSRSTSESTAALGCLVKDYFPEPVTVSWNSGALTSGVHTFPAVLQSSGLYSLSSVVTVPSSSLGTKTYTCNVDHKPSNTKVDKRVESKYGPPCPPCPAPPVAGPSVFLFPPKPKDTLMISRTPEVTCVVVDVSQEDPEVQFNWYVDGVEVHNAKTKPREEQFNSTYRVVSVLTVLHQDWLNGKEYKCKVSNKGLPSSIEKTISKAKGQPREPQVYTLPPSQEEMTKNQVSLTCLVKGFYPSDIAVEWESNGQPENNYKTTPPVLDSDGSFFLYSRLTVDKSRWQEGNVFSCSVMHEALHNHYTQKSLSLSLGK
light: EIVLTQSPATLSLSPGERTTLSCRASQRISTYLAWYQQKPGQAPRLLIYDASKRATGIPARFSGSGSGTGFTLTISSLEPEDFAVYYCQQRSNWPLTFGGGTKVEIKRTVAAPSVFIFPPSDEQLKSGTASVVCLLNNFYPREAKVQWKVDNALQSGNSQESVTEQDSKDSTYSLSSTLTLSKADYEKHKVYACEVTHQGLSSPVTKSFNRGEC
notes: H4sH = modified human IgG4 Fc; also called mAb1
Regarding B8, in assay [2], the “EC50, AP1-Luc signaling, bispecific mode” value was 0.518 nM and the “EC50, AP1-Luc signaling, peptide mode” value amounted to 0.806 nM. In addition, the IC50 in assay [3] was found to be 3.3 nM.

B9: H4H15482P (antibody, human IgG4 S228P, kappa)
heavy: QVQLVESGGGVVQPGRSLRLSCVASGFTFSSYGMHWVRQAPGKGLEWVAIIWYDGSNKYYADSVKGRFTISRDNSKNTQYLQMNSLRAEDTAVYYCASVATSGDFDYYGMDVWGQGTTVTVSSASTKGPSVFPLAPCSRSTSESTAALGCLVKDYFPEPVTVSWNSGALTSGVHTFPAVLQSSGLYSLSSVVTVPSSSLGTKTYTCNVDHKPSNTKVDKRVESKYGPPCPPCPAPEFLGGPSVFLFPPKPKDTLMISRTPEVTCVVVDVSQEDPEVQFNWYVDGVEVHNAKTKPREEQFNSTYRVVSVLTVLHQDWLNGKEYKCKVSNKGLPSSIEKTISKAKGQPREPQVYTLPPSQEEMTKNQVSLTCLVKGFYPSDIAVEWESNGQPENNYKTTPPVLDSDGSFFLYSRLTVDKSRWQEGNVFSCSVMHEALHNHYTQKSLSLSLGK
light: EIVLTQSPATLSLSPGERTTLSCRASQRISTYLAWYQQKPGQAPRLLIYDASKRATGIPARFSGSGSGTGFTLTISSLEPEDFAVYYCQQRSNWPLTFGGGTKVEIKRTVAAPSVFIFPPSDEQLKSGTASVVCLLNNFYPREAKVQWKVDNALQSGNSQESVTEQDSKDSTYSLSSTLTLSKADYEKHKVYACEVTHQGLSSPVTKSFNRGEC
notes: H4H = human IgG4 Fc with S108P
With B9, the response in assay [1] was half-maximal at 24.7 nM (EC50). In assay [2], the “EC50, AP1-Luc signaling, bispecific mode” value is greater than 100 nM and the “EC50, AP1-Luc signaling, peptide mode” value was found to be 2.48 nM. This molecule also displayed an IC50 in assay [3] of 15 nM.
